Experimental findings from patent US20220259593A1, “CONTROL OF MAMMALIAN GENE DOSAGE USING CRISPR” (The Regents of the University of California, priority 2019, published 2022) are described below.

First the molecules themselves.
B1: cr013 (nucleic acid)
guide: GTTTGAGAGCTAAGCTGGAAACAGCATAGCAAGTTTAAATAAGGCTAGTCCGTTATCAACTTGAAAAAGTGGCACCGAGTCGGTGCT
modifications: listed as DNA, chemistry not fully specified
B2: cr768 (nucleic acid)
guide: GTTTAAGAGCTAAGCTGGAAACAGCATAGCAAGTTTAAATAAGGCTAGTCCGTTATCAACTTGAAAAAGTGGCACCGAGCCGGTGCT
modifications: listed as DNA, chemistry not fully specified
B3: cr984 (nucleic acid)
guide: GTTTAAGAGCTAAGCTGGAAACAGCATAGCAAGTTTAAATAAGGCTAGTCCGTTATCAACTTGAAAAAGTGGCACCGAGTCGGTGGT
modifications: listed as DNA, chemistry not fully specified
B4: cr358 (nucleic acid)
guide: GTTTAAGAGCTAAGCTGGAAACAGCATAGCAAGTTTAAATAAGGTTAATCCGTTATCAAGTTGAAAAACTGGCACTGAGTCAGTGCT
modifications: listed as DNA, chemistry not fully specified
B5: cr806 (nucleic acid)
guide: GTTTAAGAGCTAAGCTGGAAACAGCATAGCAAGTTTAAATAGGGCTAGTCCGTTATCAACTTGAAAAAGTGGCACCGAGTCGGTGCT
modifications: listed as DNA, chemistry not fully specified
B6: cr759 (nucleic acid)
guide: GTTTAAGAGCTAAGCTGGAAACAGCATAGCAAGTTTAAATAAGGCTCGTCCGTTATCAACTTGAGAAAGTGGCACCGAGTCGGTGCT
modifications: listed as DNA, chemistry not fully specified
B7: cr749 (nucleic acid)
guide: GTTTAAGAGCTAAGCTGGAAACAGCATAGCGAGTTTAAATAAGGCTAGTCCGTCATCAACTTGAAAAAGTGGCACCGCGTCGGTGCT
modifications: listed as DNA, chemistry not fully specified
B8: cr286 (nucleic acid)
guide: GTTTAAGAGCTAAGCTGGAAACAGCATAGCAAGTTTAAATAAGGCGAGTCCGTTATCAACTTGAGAAAGTGGCACCGAGTCGGTGCT
modifications: listed as DNA, chemistry not fully specified
B9: cr781 (nucleic acid)
guide: GTTTAAGAGCTAAGCTGGAAACAGCATAGCAAGTTTAAATAAGGCTAGTCCGTTATCAACTTGAAAAAGTGGCACCGAGTCGGTCCT
modifications: listed as DNA, chemistry not fully specified
B10: cr729 (nucleic acid)
guide: GTTTAAGAGCTAAGCTGGAAATAGCATAGCAAGTTTAAATAAGGCTAGTCCGTTATCAACTTGAAAAAGTGGCACCGAGTCGGTGCT
modifications: listed as DNA, chemistry not fully specified
B11: cr123 (nucleic acid)
guide: GTTTAAGAGCTAAGCTGGAAACAGCATAGCAAGTTTAAATAAGGCTAGTCCGTTATCAACGTGAAAAAGTGGCACCGAGTCGGTGCT
modifications: listed as DNA, chemistry not fully specified
B12: cr260 (nucleic acid)
guide: GTTTAAGAGCTAAGCTGGAAACAGCATAGCAAGTTTAAATAAGGCTAGTCCGATATCAACTTGAAAAAGTGGCACCGAGTCGGTGCT
modifications: listed as DNA, chemistry not fully specified
B13: cr236 (nucleic acid)
guide: GTTTAAGAGCTAAGCTGGAAACAACATAGCAAGTTTAAATAAGGCTAGTCCGTTATCAACTTGAAAAAGTGGCACCGAGTCGGTGCT
modifications: listed as DNA, chemistry not fully specified
B14: cr488 (nucleic acid)
guide: GTTTAAGAGCTAAGCTGGAAACAGCATAGCAAGTTTAAATAAGGCTAGTCCGTTATCAACTTGAAAAAGTGGGACCGAGTCGGTCCT
modifications: listed as DNA, chemistry not fully specified
B15: cr617 (nucleic acid)
guide: GTTTAAGAGCTAAGCTGGAAACAGCATAGCAAGTTTAAATAAGGTTAATCCGTTATCAGCGTGAAAACGCGGCACCGAGTCGGTGCT
modifications: listed as DNA, chemistry not fully specified
B16: cr869 (nucleic acid)
guide: GTTTAAGAGCTAAGCTGGAAACAGCATAGCAAGTTTAAATAAGGCTAGTCCGTTATCAACTTGAAAAAGAGGCACCGAGTCGGTGCT
modifications: listed as DNA, chemistry not fully specified
B17: cr991 (nucleic acid)
guide: GTTTAAGAGCTAAGCTGGAAACAGCATAGCAAGTTTAAATAAGGCTAGTCCGATATCAACTTGACAAAGTGGCACCGAGTCGGTGCT
modifications: listed as DNA, chemistry not fully specified
B18: cr520 (nucleic acid)
guide: GTTTAAGAGCTAAGCTGGAAACAGCATAGCAAGTTTAAATAAGGCTAGTCCGATATCAACTTGCAAAAGTGGCACCGAGTCGGTGCT
modifications: listed as DNA, chemistry not fully specified
B19: cr414 (nucleic acid)
guide: GTTTAAGAGCTAAGCTGGAAACAGCATAGCAAGTTTAAATAAGGCTAGTCCGTTATCAACTTGAAAAAGTGGCTCCGAGTCGGTGCT
modifications: listed as DNA, chemistry not fully specified
B20: cr705 (nucleic acid)
guide: GTTTAAGAGCTAAGCTGGAAACAGCATAGCAAGTTTAAATAAGGCTAGTCCGTTATCAACTTGAAAAAGTGGCACGGAGTCCGTGCT
modifications: listed as DNA, chemistry not fully specified
B21: cr396 (nucleic acid)
guide: GTTTAAGAGCTAAGCTGGAAACAGCATAGCAAGTTTAAATAAGGCTAGTCCGTTATCAACTTGAAAAAGTGGCAACAAGTTGTTGCT
modifications: listed as DNA, chemistry not fully specified
B22: cr909 (nucleic acid)
guide: GTTTAAGAGCTAAGCTGGAAACAGCATATCAAGTTTAAATAAGGCTAGTCCGTGATCAACTTGTAAAAGTGGCACCGAGTCGGTGCT
modifications: listed as DNA, chemistry not fully specified
B23: cr153 (nucleic acid)
guide: GTTTAAGAGCTAAGCTGGAAACAGCATAGCAAGTTTAAATAAGGCTAGTCCGTTATCAAAATGAAAATTTGGCACCGAGTCGGTGCT
modifications: listed as DNA, chemistry not fully specified

The data set concerns K562 CRISPRi cells. Briefly: Constant region variant library pooled growth screen, K562. In kind it is cell-based, human. The conditions noted are these: sgRNA constant region variants; activity relative to the original, un-modified constant region cr995. The text has this:
We calculated relative activities for each targeting sequence:constant region pair by normalizing its phenotype to that of the targeting sequence paired with the unmodified constant region, identifying 409 constant region variants that on average conferred intermediate activity (0.1-0.9, FIG. 5B). Ten variants selected for individual evaluation also mediated intermediate levels of mRNA knockdown (FIG. 6B). Mapping the activities of constant region variants with single base substitutions onto the structure recapitulated known relationships between constant region structure and function (FIG. 5C).
The sequences in the library of modified constant regions were derived from the sgRNA (F+E) optimized sequence (23) modified to include a BlpI site (15). Each modified constant region was paired with 36 sgRNA targeting sequences (3 sgRNAs targeting each of 10 essential genes and six non-targeting negative control sgRNAs). The cloning strategy (described below) allowed the mutation of most positions in the sgRNA constant region. A variety of modifications were made, including substitutions of all single bases not in the BlpI restriction site (which is used for cloning), double substitutions including all substitutions at base-paired position pairs not before or in the BlpI site, and a variety of triple, quadruple, and sextuple substitutions, including base-pair-preserving substitutions at adjacent base-pairs.
The library was ordered and cloned in two parts. One part consisted of ˜100 modifications to the eight bases upstream of the BlpI restriction site. Constant region variants with mutations in this section were paired with each of the 36 targeting sequences, ordered as a pooled oligonucleotide library (Twist Biosciences), and cloned into pCRISPRia-v2 as described above. The second part consisted of ˜900 modifications to the 71 bases downstream of the BlpI restriction site. This part was cloned in two steps. First, all 36 targeting sequences were individually cloned into pCRISPRia-v2 as described above. The vectors were then pooled at an equimolar ratio and digested with BlpI (NEB) and XhoI (NEB). The modified constant region variants were ordered as a pooled oligonucleotide library (Twist Biosciences), PCR amplified with Phusion polymerase (NEB), digested with BlpI (NEB) and XhoI (NEB), and ligated into the digested vector pool, in a manner identical to previously published protocols and as described above, except for the different restriction enzymes.
Screens with the compact mismatched sgRNA library and the constant region library were conducted largely as described above, with smaller modifications during the screening procedure and an updated sequencing library preparation protocol. Briefly, the libraries were transduced in duplicate into K562 CRISPRi (both libraries) or HeLa CRISPRi cells (compact mismatched sgRNA library) as described above. K562 replicates were maintained separately in 0.15 to 0.3 L of RPMI-1640 in 0.3 L spinner flasks for the course of the screen. HeLa replicates were maintained in sets of ten 15-cm plates. Cells were selected with puromycin as described above (K562: 1 day of 0.75 μg/mL and 1 day of 0.85 μg/mL; HeLa: 2 days of 0.8 μg/mL and 1 day of 1 μg/mL). The remainder of the screen was carried out at >1000× library coverage (K562 compact mismatched sgRNA library: >2000×; HeLa compact mismatched sgRNA library: >1000×; K562 constant region library: >2000×). Multiple samples were harvested after 4 to 8 days of growth. For the drug screen, 10 μM lovastatin (ApexBio) or an equivalent volume of DMSO (vehicle) was added to flasks at t=0, and 3 days later cells were pelleted and re-suspended in fresh medium. Lovastatin (12 μM) or DMSO was again added after 5 and 9 days of growth, with media exchanges 3 days after drug supplementation. Multiple samples were harvested after 4 to 8 days for the K562 and HeLa growth screens. […]
In turn, B1 showed a Mean relative activity of 0.8907.

Molecule B2 displayed a Mean relative activity of 0.8788. The same measure for B3: 0.8858; for B4: 0.886. The molecule B5 registered a Mean relative activity of 0.8861. The same measure for B6: 0.8842; for B7: 0.8857. With B8 the figure was 0.885; with B9, 0.8813. With B10 the figure was 0.8793; with B11, 0.8871. The molecule B12 displayed a Mean relative activity of 0.874. The same measure for B13: 0.8745.

Take B14: the Mean relative activity is given as 1.06.

With B15, the Mean relative activity turned out to be 1.058. Turning to B16, the Mean relative activity was 0.8861. With B17 the figure was 0.8694; with B18, 0.8874; with B19, 0.8852. The same measure for B20: 0.8901; for B21: 0.8826; for B22: 0.8864. With B23 the figure was 0.8735.
